For two substances, Kd, koff and kon results are on record in paper PMC8443317.

The experiment has as its target recombinant human angiotensin-converting enzyme 2 (ACE2) receptor, biotinylated (human) (UniProt Q9BYF1). The experiment in a line: SPR.

In general, Kd refers to a measure of binding affinity in units of concentration. As usually defined, the koff is a measure of how fast the partners let go of each other. For orientation: kon means the rate constant with which the complex forms. Consider “SARS-CoV-2 spike S1 variant D614G (domain or fragment)”, for which the Kd was found to be 42.2 nM, the koff came out at 0.00578 s⁻¹ and the association rate constant (kon) is 138000 M⁻¹ s⁻¹.
Consider “recombinant original SARS-CoV-2 spike S1 protein (domain or fragment)”, for which the equilibrium dissociation constant (Kd) came out at 10.5 nM.
